Read-outs that look alike come from different tables or passages of the source.
T1: human TrkA ECD (human)
T1 chain: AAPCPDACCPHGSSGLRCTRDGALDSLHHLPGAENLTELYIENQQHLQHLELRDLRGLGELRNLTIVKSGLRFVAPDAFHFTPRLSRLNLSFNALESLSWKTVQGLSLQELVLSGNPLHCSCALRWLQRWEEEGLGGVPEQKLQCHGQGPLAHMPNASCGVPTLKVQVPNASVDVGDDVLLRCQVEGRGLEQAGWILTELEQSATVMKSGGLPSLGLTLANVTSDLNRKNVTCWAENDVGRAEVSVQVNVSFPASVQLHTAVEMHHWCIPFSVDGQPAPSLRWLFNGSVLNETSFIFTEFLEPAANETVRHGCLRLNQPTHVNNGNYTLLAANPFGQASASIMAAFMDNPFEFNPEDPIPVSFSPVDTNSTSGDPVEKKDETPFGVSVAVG


How the values were obtained:
human TrkA ECD [1] = biological target: T1, human TrkA ECD; experiment: BLI
human TrkA ECD [2] = biological target: T1, human TrkA ECD; experiment: BLI
TrkA (cell surface) = TrkA (cell surface) (human); experiment: FACS
Sequence of TrkA (cell surface) (human) (B2R6T5 whole entry): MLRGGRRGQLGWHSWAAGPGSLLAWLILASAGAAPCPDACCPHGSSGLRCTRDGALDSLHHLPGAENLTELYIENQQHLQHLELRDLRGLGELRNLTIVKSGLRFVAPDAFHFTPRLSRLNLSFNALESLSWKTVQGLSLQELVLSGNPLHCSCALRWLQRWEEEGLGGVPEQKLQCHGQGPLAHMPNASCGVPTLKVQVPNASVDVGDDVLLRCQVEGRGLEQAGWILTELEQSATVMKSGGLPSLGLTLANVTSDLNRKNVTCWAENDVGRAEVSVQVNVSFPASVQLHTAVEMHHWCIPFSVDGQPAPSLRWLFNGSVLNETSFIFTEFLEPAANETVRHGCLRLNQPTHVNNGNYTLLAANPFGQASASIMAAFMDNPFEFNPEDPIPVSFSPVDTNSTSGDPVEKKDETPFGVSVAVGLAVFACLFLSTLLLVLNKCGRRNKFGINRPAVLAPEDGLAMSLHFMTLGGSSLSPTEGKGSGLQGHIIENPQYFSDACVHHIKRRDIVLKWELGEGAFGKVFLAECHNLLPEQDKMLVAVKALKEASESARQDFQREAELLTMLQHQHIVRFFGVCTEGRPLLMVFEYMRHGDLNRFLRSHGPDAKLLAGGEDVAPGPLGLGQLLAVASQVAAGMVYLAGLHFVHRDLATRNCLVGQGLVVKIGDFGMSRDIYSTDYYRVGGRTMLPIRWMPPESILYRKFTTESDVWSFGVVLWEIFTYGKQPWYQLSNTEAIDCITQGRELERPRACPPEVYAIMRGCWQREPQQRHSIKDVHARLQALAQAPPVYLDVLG

Kd (human TrkA ECD [1])	Kd (human TrkA ECD [2])	EC50 (TrkA (cell surface))	Binder
0.771 nM			Chi70D3A6 (antibody, V domains shown) VH: EVKLVESGGDLVKPGGSLKLSCTASGFTFTYYAMSWVRQTPEKRLEWVATISGGGDTYYLDSVKGRFTISRDNAGNILYLQMSSLRSEDTAMYYCARGVGGNFFDYWGQGSTLTVSS VL: QIVLTQSPAIMSASPGEKVTISCSASSSVSYMYWYQQKPGSSPKPFIYRTSNLASGVPSRFSGSGSGTSYSLTVSTMEAEDAATYYCQLYHSYTPITFGAGTKLELK
1.3 nM			Chi99H4D5 (antibody, V domains shown) VH: EVKLVESGGGLVKPGGSLKLSCAASGFTFSYYAISWLRQTPEKRLEWVASISGNGDTYYLDSVKGRFTISRDNARNILYLQMSSLRSEDTAMYYCARGVGGNYFDYWGQGTTLTVSS VL: DIVMTQSPAIMSASPGEKVTISCSASSSVSYMYWYQQKPGSSPKPLIYRTSNLASGVPARFSGSGSGTSYSLTISTMEAEDAATYYCQQYHSYTPITFGAGTKLDLK
	0.591 nM	~0.289 nM	Hu70D3A6-V12 (antibody, V domains shown) VH: EVQLVESGGGLVKPGGSLRLSCAASGFTFTYYAMSWVRQAPGKGLEWVSSISGGGDVYYADSVKGRFTISRDNAKNTLYLQMNSLRAEDTAVYYCARGVGGNYFDYWGQGTLVTVSS VL: DIQMTQSPSSLSASVGDRVTITCSASSSVSYMYWYQQKPGKAPKPLIYRTSNLASGVPSRFSGSGSGTDFTLTISSLQPEDFATYYCQLYHSYTPITFGQGTKLEIK
	0.753 nM	~0.362 nM	Hu99H4D5-V6 (antibody, V domains shown) VH: EVQLVESGGGLVKPGGSLRLSCAASGFTFSYYAISWVRQAPGKGLEWVSSISGGGDVYYADSVKGRFTISRDNAKNTLYLQMNSLRAEDTAVYYCARGVGGNYFDYWGQGTLVTVSS VL: DIQMTQSPSSLSASVGDRVTITCSASSSVSYMYWYQQKPGKAPKPLIYRTSNLASGVPSRFSGSGSGTDFTLTISSLQPEDFATYYCQQYHSYTPITFGQGTKLEIK

— patent publication US20260365740 (published 2026)
